Reference: PMC10153752, “Exo1 protects DNA nicks from ligation to promote crossover formation during meiosis”

Molecular target: T1, exo1-D173A (Saccharomyces cerevisiae, UniProt P39875 1-702, D173A)
T1 sequence: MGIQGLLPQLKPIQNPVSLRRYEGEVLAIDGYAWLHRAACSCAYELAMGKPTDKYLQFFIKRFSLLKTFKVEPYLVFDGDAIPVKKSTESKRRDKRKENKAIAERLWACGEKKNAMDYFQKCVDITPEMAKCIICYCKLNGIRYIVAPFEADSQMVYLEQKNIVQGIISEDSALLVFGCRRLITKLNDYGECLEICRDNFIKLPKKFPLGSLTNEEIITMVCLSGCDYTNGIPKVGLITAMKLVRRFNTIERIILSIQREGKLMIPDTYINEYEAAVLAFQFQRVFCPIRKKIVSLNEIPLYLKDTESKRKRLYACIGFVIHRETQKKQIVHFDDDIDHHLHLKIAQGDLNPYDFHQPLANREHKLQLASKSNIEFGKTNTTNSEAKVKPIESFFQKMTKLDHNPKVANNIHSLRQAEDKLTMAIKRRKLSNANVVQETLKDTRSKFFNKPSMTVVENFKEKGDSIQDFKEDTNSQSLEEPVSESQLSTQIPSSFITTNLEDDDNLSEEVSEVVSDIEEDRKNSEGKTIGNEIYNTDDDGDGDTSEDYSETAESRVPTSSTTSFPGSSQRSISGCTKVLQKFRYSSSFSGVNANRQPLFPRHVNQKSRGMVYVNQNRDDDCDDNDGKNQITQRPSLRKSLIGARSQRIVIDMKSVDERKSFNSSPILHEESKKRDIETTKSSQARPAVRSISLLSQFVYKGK
Assay: filter binding; no added metal, 0.01 mM EDTA; 15 nM DNA, 35 mM NaCl, 20 mM Tris pH 7.5, 0.04 mg/ml BSA, 0.01 mM EDTA, 0.1 mM DTT, 60 ul, 10 min at 30 C; KOH-treated nitrocellulose filter binding
Conditions: protein: recombinant; tags: FLAG; label: 5'-32P on AO3144 (8% labeled); nicked duplex with 19 nt 5' flap (AO3145 1-19); last 3 nt of AO3145 mismatch the 5' end of AO3144

B1: 19 nt 5' flap substrate (AO3145 + AO3940 annealed to AO3144) (dsDNA)
DNA 1: ACAGCTACCGAATTCTGACTTGCTAGGACATCTTTGCCCACGTTGACCC
DNA 2: TCGATAGTCTCTAGATAGCATGTCCTAGCAAGTCAGAATTCGGTAGCGTG
DNA 3: GGGTCAACGTGGGCAAAG
- binding result: binds
